Measurements reported in patent US20190077849A1.
“And” between values parts separate entries of the source, which are not always exact repeats. Equal values may be shown once. Read-outs that look alike come from different tables or passages of the source.

Experiments:
Assay in all cases: cell-based or functional assay
[1] = target: HIV-1 Env of YU2.DG.SG3 pseudovirus (clade B) (HIV-1) (UniProt P35961)
[2] = target: HIV-1 Env of CNE31.SG3 pseudovirus (clade C) (HIV-1)
[3] = target: HIV-1 Env of ZM106.9.SG3 pseudovirus (clade C) (HIV-1)
[4] = target: HIV-1 Env of 6095.V1.C10.SG3 pseudovirus (clade ACD) (HIV-1)
[5] = target: HIV-1 Env of TH966.8.SG3 pseudovirus (clade AE) (HIV-1)
[6] = target: HIV-1 Env of KER2008.12.SG3 pseudovirus (clade A) (HIV-1)
[7] = target: HIV-1 Env of ZM215.8.SG3 pseudovirus (clade C) (HIV-1)
[8] = target: HIV-1 Env of 6101.10.SG3 pseudovirus (clade B) (HIV-1)
[9] = target: HIV-1 Env of PVO.04.SG3 pseudovirus (clade B) (HIV-1)
[10] = target: HIV-1 Env of YU2.DG.SG3 pseudovirus (clade B) (HIV-1) (UniProt P35961); remark: listed apart in the source
[11] = target: HIV-1 Env of CNE31.SG3 pseudovirus (clade C) (HIV-1); remark: listed apart in the source
[12] = target: HIV-1 Env of 6095.V1.C10.SG3 pseudovirus (clade ACD) (HIV-1); remark: listed apart in the source
[13] = target: HIV-1 Env of TH966.8.SG3 pseudovirus (clade AE) (HIV-1); remark: listed apart in the source
[14] = target: HIV-1 Env of ZM215.8.SG3 pseudovirus (clade C) (HIV-1); remark: listed apart in the source
[15] = target: HIV-1 Env of 6101.10.SG3 pseudovirus (clade B) (HIV-1); remark: listed apart in the source
[16] = target: HIV-1 Env of PVO.04.SG3 pseudovirus (clade B) (HIV-1); remark: listed apart in the source

Chain of 10E8v4 S100cW (antibody) (VH): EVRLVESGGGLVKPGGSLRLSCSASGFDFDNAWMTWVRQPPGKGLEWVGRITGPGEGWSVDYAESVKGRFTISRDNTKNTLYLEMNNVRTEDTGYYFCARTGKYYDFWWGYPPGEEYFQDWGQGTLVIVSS
Chain of 10E8v4 S100cW (antibody) (VL): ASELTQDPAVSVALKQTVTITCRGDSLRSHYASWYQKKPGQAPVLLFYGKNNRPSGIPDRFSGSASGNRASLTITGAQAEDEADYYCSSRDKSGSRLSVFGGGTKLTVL

10E8v4 VL Y32M (antibody)
IC50, pseudovirus neutralization [1]: > 50 µg/mL | IC50, pseudovirus neutralization [2]: > 50 µg/mL | IC50, pseudovirus neutralization [3]: > 50 µg/mL | IC50, pseudovirus neutralization [4]: 1.03 µg/mL | IC50, pseudovirus neutralization [5]: 29.8 µg/mL | IC50, pseudovirus neutralization [6]: > 50 µg/mL | IC50, pseudovirus neutralization [7]: > 50 µg/mL | IC50, pseudovirus neutralization [8]: > 50 µg/mL | IC50, pseudovirus neutralization [9]: > 50 µg/mL

10E8v4 VL Y32K (antibody)
IC50, pseudovirus neutralization [1]: > 50 µg/mL | IC50, pseudovirus neutralization [2]: > 50 µg/mL | IC50, pseudovirus neutralization [3]: > 50 µg/mL | IC50, pseudovirus neutralization [4]: 0.359 µg/mL | IC50, pseudovirus neutralization [5]: 10.2 µg/mL | IC50, pseudovirus neutralization [6]: > 50 µg/mL | IC50, pseudovirus neutralization [7]: 33 µg/mL | IC50, pseudovirus neutralization [8]: > 50 µg/mL | IC50, pseudovirus neutralization [9]: > 50 µg/mL

10E8v4 VL Y32W (antibody)
IC50, pseudovirus neutralization [1]: 1.07 µg/mL | IC50, pseudovirus neutralization [2]: 0.719 µg/mL | IC50, pseudovirus neutralization [3]: > 50 µg/mL | IC50, pseudovirus neutralization [4]: 0.005 µg/mL | IC50, pseudovirus neutralization [5]: 0.029 µg/mL | IC50, pseudovirus neutralization [6]: > 50 µg/mL | IC50, pseudovirus neutralization [7]: 0.089 µg/mL | IC50, pseudovirus neutralization [8]: 0.055 µg/mL | IC50, pseudovirus neutralization [9]: 1.4 µg/mL

10E8 antibody
IC50, pseudovirus neutralization [2]: 1.19 µg/mL and 0.995 µg/mL | IC50, pseudovirus neutralization [3]: > 50 µg/mL | IC50, pseudovirus neutralization [5]: 0.032 µg/mL and 0.023 µg/mL | IC50, pseudovirus neutralization [6]: > 50 µg/mL | IC50, pseudovirus neutralization [9]: 2.09 µg/mL and 0.997 µg/mL

10E8v4 VL Y32I (antibody)
IC50, pseudovirus neutralization [1]: > 50 µg/mL | IC50, pseudovirus neutralization [2]: > 50 µg/mL | IC50, pseudovirus neutralization [3]: > 50 µg/mL | IC50, pseudovirus neutralization [4]: 1.3 µg/mL | IC50, pseudovirus neutralization [5]: 21.4 µg/mL | IC50, pseudovirus neutralization [6]: > 50 µg/mL | IC50, pseudovirus neutralization [7]: > 50 µg/mL | IC50, pseudovirus neutralization [8]: > 50 µg/mL | IC50, pseudovirus neutralization [9]: > 50 µg/mL

10E8v4 VL Y32T (antibody)
IC50, pseudovirus neutralization [1]: 43.5 µg/mL | IC50, pseudovirus neutralization [2]: > 50 µg/mL | IC50, pseudovirus neutralization [3]: > 50 µg/mL | IC50, pseudovirus neutralization [4]: 0.145 µg/mL | IC50, pseudovirus neutralization [5]: 3.76 µg/mL | IC50, pseudovirus neutralization [6]: > 50 µg/mL | IC50, pseudovirus neutralization [7]: 9.25 µg/mL | IC50, pseudovirus neutralization [8]: > 50 µg/mL | IC50, pseudovirus neutralization [9]: > 50 µg/mL

10E8v4 VL Y32L (antibody)
IC50, pseudovirus neutralization [1]: > 50 µg/mL | IC50, pseudovirus neutralization [2]: > 50 µg/mL | IC50, pseudovirus neutralization [3]: > 50 µg/mL | IC50, pseudovirus neutralization [4]: 0.593 µg/mL | IC50, pseudovirus neutralization [5]: 4.26 µg/mL | IC50, pseudovirus neutralization [6]: > 50 µg/mL | IC50, pseudovirus neutralization [7]: 8.75 µg/mL | IC50, pseudovirus neutralization [8]: 38.6 µg/mL | IC50, pseudovirus neutralization [9]: > 50 µg/mL

10E8v4 VL Y32R (antibody)
IC50, pseudovirus neutralization [1]: > 50 µg/mL | IC50, pseudovirus neutralization [2]: > 50 µg/mL | IC50, pseudovirus neutralization [3]: > 50 µg/mL | IC50, pseudovirus neutralization [4]: 0.152 µg/mL | IC50, pseudovirus neutralization [5]: 4.08 µg/mL | IC50, pseudovirus neutralization [6]: > 50 µg/mL | IC50, pseudovirus neutralization [7]: 7.52 µg/mL | IC50, pseudovirus neutralization [8]: > 50 µg/mL | IC50, pseudovirus neutralization [9]: > 50 µg/mL

10E8v4 VL Y32N (antibody)
IC50, pseudovirus neutralization [1]: > 50 µg/mL | IC50, pseudovirus neutralization [2]: > 50 µg/mL | IC50, pseudovirus neutralization [3]: > 50 µg/mL | IC50, pseudovirus neutralization [4]: 2.92 µg/mL | IC50, pseudovirus neutralization [5]: > 50 µg/mL | IC50, pseudovirus neutralization [6]: > 50 µg/mL | IC50, pseudovirus neutralization [7]: > 50 µg/mL | IC50, pseudovirus neutralization [8]: > 50 µg/mL | IC50, pseudovirus neutralization [9]: > 50 µg/mL

10E8v4 S100cW (antibody)
IC50, pseudovirus neutralization [10]: 0.042 µg/mL | IC80, pseudovirus neutralization [10]: 0.331 µg/mL | IC50, pseudovirus neutralization [11]: 0.041 µg/mL | IC80, pseudovirus neutralization [11]: 0.149 µg/mL | IC50, pseudovirus neutralization [12]: 0.001 µg/mL | IC50, pseudovirus neutralization [13]: 0.001 µg/mL | IC80, pseudovirus neutralization [13]: 0.007 µg/mL | IC50, pseudovirus neutralization [14]: 0.001 µg/mL | IC80, pseudovirus neutralization [14]: 0.012 µg/mL | IC50, pseudovirus neutralization [15]: 0.001 µg/mL | IC80, pseudovirus neutralization [15]: 0.006 µg/mL | IC50, pseudovirus neutralization [16]: 0.088 µg/mL | IC80, pseudovirus neutralization [16]: 0.388 µg/mL | IC50, pseudovirus neutralization [1]: 0.031 µg/mL | IC80, pseudovirus neutralization [1]: 0.26 µg/mL | IC50, pseudovirus neutralization [2]: 0.107 µg/mL | IC80, pseudovirus neutralization [2]: 0.295 µg/mL | IC50, pseudovirus neutralization [3]: > 50 µg/mL | IC80, pseudovirus neutralization [3]: > 50 µg/mL | IC80, pseudovirus neutralization [4]: 0.001 µg/mL | IC50, pseudovirus neutralization [5]: 0.003 µg/mL | IC80, pseudovirus neutralization [5]: 0.013 µg/mL | IC50, pseudovirus neutralization [6]: > 50 µg/mL | IC80, pseudovirus neutralization [6]: > 50 µg/mL | IC50, pseudovirus neutralization [7]: 0.004 µg/mL | IC80, pseudovirus neutralization [7]: 0.025 µg/mL | IC50, pseudovirus neutralization [8]: 0.002 µg/mL | IC80, pseudovirus neutralization [8]: 0.01 µg/mL | IC50, pseudovirus neutralization [9]: 0.085 µg/mL | IC80, pseudovirus neutralization [9]: 0.459 µg/mL
